Assay [1] has as its target T1, extracellular domain of the prolactin receptor (hPRLbp) (Homo sapiens, UniProt P16471).
T1 construct: with the extracellular domain of the prolactin receptor (hPRLbp)
T1 sequence (P16471 25-234 limits assumed): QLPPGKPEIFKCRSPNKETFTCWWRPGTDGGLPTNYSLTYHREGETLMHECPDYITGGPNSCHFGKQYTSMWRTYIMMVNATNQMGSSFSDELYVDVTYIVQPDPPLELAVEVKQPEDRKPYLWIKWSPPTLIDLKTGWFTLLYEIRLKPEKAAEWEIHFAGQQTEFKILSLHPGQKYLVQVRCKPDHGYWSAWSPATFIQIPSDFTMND
The note with it: cited from earlier work; for Kd: read-out: Kd, binding to hPRLbp.

Assay [2] deals with IL-8 (CXCL8, interleukin 8) (UniProt P10145). In words: inhibition of 125I-IL-8 binding to neutrophil membranes; with 100 uM ZnCl2 against without Zn(II).
IL-8 (CXCL8, interleukin 8), sequence (P10145 28-99 limits assumed): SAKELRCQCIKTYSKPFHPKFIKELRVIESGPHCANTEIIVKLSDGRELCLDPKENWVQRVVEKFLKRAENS
For assay [3] the target is unchanged. In words: inhibition of 125I-IL-8 binding to neutrophil membranes, (II).
For assay [4] the target is unchanged. In words: inhibition of 125I-IL-8 binding to neutrophil membranes, in the presence of 100 uM ZnCl2.

Like-named read-outs stand apart in the source and are kept apart here.

In the case of “hGH: human growth hormone, binds the extracellular domain of the prolactin receptor (hPRLbp)”, the results for the Kd in assay [1] (in the absence of Zn(II)) and in assay [1] (in the presence of Zn(II)) were 270 nM and 0.033 nM, respectively. Besides, the “increase of binding affinity with Zn(II)” value in assay [1] (presence vs absence of Zn(II)) is listed as “about 8,000 fold”.

As to “synthetic N-terminal peptide CXCR1 (21-residues in length in which Met 12 was replaced by a His to create a Zn(II) binding site)”, in assay [2], the fold better inhibition with Zn(II) than in the absence of Zn(II) is 125 fold. The Ki in assay [3] is 141000 nM; in assay [4], 1120 nM.

These data come from US20040152634A1, “Chemokine antagonists and uses thereof” (priority 2002, published 2004).
